Laboratory results reported in publication PMC3091952.

Assays:
Test in all cases: pull-down
[1] = target: PAD4 R484Q, labelled with BFA (human) (UniProt Q9UM07)
[2] = target: PAD4 R123Q, labelled with BFA (human) (UniProt Q9UM07)
[3] = target: PAD4 R639Q, labelled with BFA (human) (UniProt Q9UM07)
[4] = target: PAD4 R609Q, labelled with BFA (human) (UniProt Q9UM07)
[5] = target: PAD4 R419Q, labelled with BFA (human) (UniProt Q9UM07)

Work on “Protein Arginine Methyltransferase 1 (PRMT1) (from UniProt Q99873 1-371) (enzyme)” yielded a fold reduction of affinity against wild type PAD4 [1] of 10 fold, a fold reduction of affinity against wild type PAD4 [2] of 2 fold and a fold reduction of affinity against wild type PAD4 [3] of 5 fold. It also gave a fold reduction of affinity against wild type PAD4 [4] of 3.3 fold.

With “Histone Deacetylase 1 (HDAC1) (from UniProt Q13547 1-482) (enzyme)” the fold decrease of affinity against wild type PAD4 [1] was 1.4 fold, the fold decrease of affinity against wild type PAD4 [2] was 3.3 fold and the fold decrease of affinity against wild type PAD4 [5] was 1.4 fold.
